Results taken from US20110166074A1.

Experiments:
[1] = target: Cy3-labeled Alzheimer's amyloid-beta fibrils
[2] = target: mannose 6-phosphate receptor (MPR) on cultured rat cerebellar granule neurons (rat) (UniProt P70580); assay: cell-based or functional assay
Chain of UniProt P70580 (P70580 whole entry): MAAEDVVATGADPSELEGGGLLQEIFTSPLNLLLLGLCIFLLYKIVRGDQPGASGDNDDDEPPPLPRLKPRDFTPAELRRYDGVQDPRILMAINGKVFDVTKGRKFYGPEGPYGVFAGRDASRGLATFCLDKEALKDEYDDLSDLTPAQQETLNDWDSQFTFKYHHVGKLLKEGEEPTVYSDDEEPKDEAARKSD

EC50 of M6P inhibitable uptake into rat cerebellar granule neurons (intracellular TPP1 activity) [2]: 6 to 8 nM
B1: recombinant human CLN2 protein produced in CHO cells (proCLN2, 65 KDa precursor) (protein)
chain: SYSPEPDQRRTLPPGWVSLGRADPEEELSLTFALRQQNVERLSELVQAVSDPSSPQYGKYLTLENVADLVRPSPLTLHTVQKWLLAAGAQKCHSVITQDFLTCWLSIRQAELLLPGAEFHHYVGGPTETHVVRSPHPYQLPQALAPHVDFVGGLHRFPPTSSLRQRPEPQVTGTVGLHLGVTPSVIRKRYNLTSQDVGSGTSNNSQACAQFLEQYFHDSDLAQFMRLFGGNFAHQASVARVVGQQGRGRAGIEASLDVQYLMSAGANISTWVYSSPGRHEGQEPFLQWLMLLSNESALPHVHTVSYGDDEDSLSSAYIQRVNTELMKAAARGLTLLFASGDSGAGCWSVSGRHQFRPTFPASSPYVTTVGGTSFQEPFLITNEIVDYISGGGFSNVFPRPSYQEEAVTKFLSSSPHLPPSSYFNASGRAYPDVAALSDGYWVVSNRVPIPWVSGTSASTPVFGGILSLINEHRILSGRPPLGFLNPRLYQQHGAGLFDVTRGCHESCLDEEVEGQGFCSGPGWDPVTGWGTPNFPALLKTLLNP
percent of Cy3-fAβ degraded in microglia at 12.5 nM CLN2 (against mannose-6-phosphate control) [1]: insignificant (2%) degradation at 12.5 nM
percent of Cy3-fAβ degraded in microglia at 25 nM CLN2 (against mannose-6-phosphate control) [1]: 19% at 25 nM
percent of Cy3-fAβ degraded in microglia at 50 nM CLN2 (against mannose-6-phosphate control) [1]: 22% degradation at 50 nM CLN2
percent of Cy3-fAβ degraded in microglia at 100 nM CLN2 (against mannose-6-phosphate control) [1]: -30% degradation of the Cy3-fAβ when 100 nM of CLN2 was added to microglia
